The nanobody polyreactivity screen of Harvey et al. (2022)

assay: yeast display, Sf9 membrane polyspecificity reagent, FACS + sequencing; frameworks hold sequencing errors
Procedure, shortened: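 Nanobodies came from a synthetic yeast display library in Saccharomyces cerevisiae BJ5465, induced with galactose for 36–48 hours and stained for 1 hour at 4 °C with 10% biotinylated, detergent-solubilized Sf9 membrane reagent. Cells were enriched on streptavidin microbeads and then FACS-sorted, with low and high (top ~1%) gates set on anti-HA fluorescence for expression and streptavidin fluorescence for reagent binding. Each polyreactivity label reflects the gate a clone came from. Genes were amplified by colony PCR, sequenced by MiSeq 2 × 250 and filtered by CDR length.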

Sequence | polyreactivity (PSR sort gate)
QVQLVESGGGLVQAGGSLRLSCAASGRTFDLNGMGWYRQAPGKERELVAAITRGGSTNYADSVKGRFTISRDNAKNTVYLQMNSLKPEDTAVYYCAADSSFWYYDRYDYWGQGTQVTVSS | low polyreactivity
QVQLVESGGGLVQAGGSLRLSCAASGRTFDPYAMGWYIQAPGKERELVAAITSGDDTYYADSVKGRFTISRDNAKNTVYLQMNSLKPEDTAVYYCAADSFTPDYYSHDYWGQGTQVTVSS | low polyreactivity
QVQLVESGGGLVQAGGSLRLSCAASGRTFDPYAMVWYRQAPGKERELVAAISSGGSTNYADSVKGRFTISRDNAMYTVYLQMNSLKPEDTAVYFCATDSGDGEGDYWGQGTQVTVSS | low polyreactivity
QVQLVESGGGLVQAGGSLRLSCAASGRTFDRNAMGWYRQAPGKERELVAAITSRGGRTYYADSVKGRFTISRDNAKNTVYLQMNSLKPEDTAVYYCAAQGRGHRFGDSRDNYWGQGTQVTVSS | high polyreactivity
QVQLVESGGGLVQAGGSLRLSCAASGRTFDRNAMGWYRQAPGKERELVARITIDGSTNYADSVKGRFTISRDNAKNTVYLQMNSLKPEDTAVYYCATDQLSLSWYFRPYDYGYWGQGTQVTVSS | high polyreactivity
QVQLVESGGGLVQAGGSLRLSCAASGRTFDRNTMGWYRQAPGKERELVAAISGSSARTYYADSVKGRFTISRDNAKNTVYLQMNSLKPEDTAVYYCNAEYGARAQHYEGDSWGQGTQVTVSS | high polyreactivity
QVQLVESGGGLVQAGGSLRLSCAASGRTFDRYAMGWYRQAPGKERELVAAITWSGGRTYYADSVKGRFTISRDNAKNTVYLQMNSLKPEDTAVYYCAADDPRDHWYTAMDYWGQGTQVTVSS | low polyreactivity
QVQLVESGGGLVQAGGSLRLSCAASGRTFDRYAMGWYRQAPGKERELVATISRRSSITYYADSVKGRFTISRDNAKNTVYLQMNRLKPEDTAVYYCAATSLYPTWRRGYDYWGQGTQVTVSS | high polyreactivity
QVQLVESGGGLVQAGGSLRLSCAASGRTFDSYTMGWYRQAPGKERELVARIRWSGGSTYYADSVKGRFTISRDNAKNTVYLQMNSLKPEDTAVYYCAVYQYVGYTMDYWGQGTQVTVSS | low polyreactivity
QVQLVESGGGLVQAGGSLRLSCAASGRTFDTYAMGWYRQAPGKERELVAAISTTGRTYYADSVKGRFTISRDNAKNTVYLQMNSLKPEDTALYYCATDPTRSPTSDWGYYYWGQGTQVTVSS | low polyreactivity
QVQLVESGGGLVQAGGSLRLSCAASGRTFDTYVMGWYRQAPGKERELVAAISIGGNTNYADSVKGRFTISRDNAKNTVYLQMNSLKPEDTAVYYCAKAWSGISSRDYDLDYWGQGTQVTVSS | low polyreactivity
QVQLVESGGGLVQAGGSLRLSCAASGRTFDVNAMGWYRQAPGKERELVAAIRISGGSTYYADSVKGRFTISRDNAKITVYLQMNSLKPEDTAVYYCAAYERRYRNAYDYWGQGTQVTVSS | high polyreactivity
QVQLVESGGGLVQAGGSLRLSCAASGRTFDVYAMAWYRQAPGKERELVATISWRGTSTYYADSVKGRFTISRDNAKNTVYLQMNSLKPADTAVYYCAKDPQPDLYGSWGQGTQVTVSS | high polyreactivity
QVQLVESGGGLVQAGGSLRLSCAASGRTFDVYAMGWYRPAPGKERELVAAITSGGSTYYADSVKGRYTISRDNAKNTVFLLINSLKPEDTAVYYCATDVDKSLYDYWGQGTQVTVSS | low polyreactivity
QVQLVESGGGLVQAGGSLRLSCAASGRTFDVYTMGWYRHAAGKERELVAAITARGARTYYADSVKGRFTISRDNAKNTVYLQMNSLKPEDTAVYYCAAKSYRHSLYDYWGQGTQVTVSS | high polyreactivity
QVQLVESGGGLVQAGGSLRLSCAASGRTFDWYAMGWYRPAPGKERELVAAISRSGGSTYYADSVKGRFTISLDNAKNTVYLQMNSLKPEDTAVYYCAKRYAPDSRYYYWGQGTQVTVSS | high polyreactivity
QVQLVESGGGLVQAGGSLRLSCAASGRTFDWYVMGWYRQAPGKERELVASIRGTGSTYYADSVKGRFTISRDNAKNTVYLQMNSLKPEDTAVYYCAARPGYLYSKYNYWGQGTQVTVSS | high polyreactivity
QVQLVESGGGLVQAGGSLRLSCAASGRTFDYNAMGWYRPAPGKERELVAAISRSGGSTYYADSVKGRFTISRDNAKNTVYLQMNRLKPEDTAVYYCAADNYYLFALYEYGYWGQGTQVTVSS | high polyreactivity
QVQLVESGGGLVQAGGSLRLSCAASGRTFDYNAMGWYRQAPGKEREMVAAISSSGGSTYYADSVKGRFTISRDNAKNTVYLQMNSLKPEDTAVYYCATLYPRISIYYYWGQGTQVTVSS | high polyreactivity
QVQLVESGGGLVQAGGSLRLSCAASGRTFDYYAMGWFRQAPGKERELVAAISSSGGRTYYADSVKGRFTISRDNAKNTVYLQMNSLKPEDTAVYYCNAVVSRNYEYWGQGTQVTVSS | high polyreactivity
QVQLVESGGGLVQAGGSLRLSCAASGRTFEGNAMGWSRQAPGKERELVAAISGSGGRTYYADSVKGRFTISRDNAKNTVYLQMNSLKPEDTAVYYATLYSVYNPWRFNYWGQGTQVTVSS | high polyreactivity

Sequence | polyreactivity (PSR sort gate)
QVQLVESGGGLVQAGGSLRLSCAASGRTFEGNAMGWYRQSPGKERELVAAIRWRGGRTYYADSVKGRFTISRDNAKNTVYLQLNSLNPEDTAVYYCAAAGLPPPDNDYWGQGTQVTVSS | low polyreactivity
QVQLVESGGGLVQAGGSLRLSCAASGRTFEIYAIGWYSKAPGKERELVAAISSGGSTYYADSVKGRFTISRDNAKNTVYLQMNSLKPEDTAVYYCAVRWYDQVSRRGIGYYWGQGTQVTVSS | low polyreactivity
QVQLVESGGGLVQAGGSLRLSCAASGRTFEKYVMGWYRQAPGKERELVASISKRGGSTYYADSVKGRFTISRDNAKNTVYLQMNSLKPEDTAVYYCNKDSRASPYGYWGQGTQVTVSS | high polyreactivity
QVQLVESGGGLVQAGGSLRLSCAASGRTFEPNAMGWYRQAPGKEREFVAAISWDGGDTYYADSVKGRFTISRDNAKNTVYLQMNSLKPEDTAVYYCAKSTLYSVEYDYWGQGTQVTVSS | low polyreactivity
QVQLVESGGGLVQAGGSLRLSCAASGRTFEQYAMGWSRQAPGKERELVAAISGSGGSTFYADSVKGRFTISRDNAKNTVYLQMNSLKPEDTAVYYCNAPGDGYLYDHTYDYWGQGTQVTVSS | low polyreactivity
QVQLVESGGGLVQAGGSLRLSCAASGRTFERYALGWYRQAPGKERELVAAIDFSGGSTSYADSVKGRFTISRDNAKNTVYLQMNSLKPEDTAVYYCAARETAHGGKEDDYWGQGTQVTVSS | low polyreactivity
QVQLVESGGGLVQAGGSLRLSCAASGRTFERYAMGWYRQAPGKERELVATITRRGGSTYYADSVKGRFTISRDNAKNTVYLQMNSLKPEDTAVYYCNADNQAYRIYARGYWGQGTQVTVSS | high polyreactivity
QVQLVESGGGLVQAGGSLRLSCAASGRTFESNAMGWYRQAPGKERELVAAISYGGGTTHYADSVKGRFTISRDNAKNTVYLQMNSLKPEDTAVYYCAADPEHQWESVTIGEYDYWGQGTQVTVSS | low polyreactivity
QVQLVESGGGLVQAGGSLRLSCAASGRTFESNAMGWYRQAPGKERELVAGITSGGITNYADSVKGRFTISRDNAKNTVYLQMISLKPEDTAVYYCEFYYWGQGTQVTVSS | low polyreactivity
QVQLVESGGGLVQAGGSLRLSCAASGRTFESNAMGWYRQAPGKERELVAGITSGGITNYADSVKGRFTISRDNAKNTVYLQMNSLKPEDTAVYYCEFYYWGQGTQVTVSS | low polyreactivity
QVQLVESGGGLVQAGGSLRLSCAASGRTFESNAMGWYRQAPGKERELVASITDGGSTNYADSVKGRFTISRDNAKNTVYLQMNSLKPEDSAVYYCNVTKRGSLWSVPDQTYDYWGQGTQVTVSS | low polyreactivity
QVQLVESGGGLVQAGGSLRLSCAASGRTFESYAMGWYRQAPGTERELVAAITWSGGDTYYADSVKGRFTISRDNAKNTVYLQMNSLKPEETAVYYCAKEQGLYSVSPYDYWGQGTQVTVSS | low polyreactivity
QVQLVESGGGLVQAGGSLRLSCAASGRTFEYYAMGWYRQAPGKERDLVAAISTSGGSTYYADSVKGRFTISRDNAKNTVYLQMNSLKPEDTAVYYCNKVQSTANDYWGQGTQVTVSS | low polyreactivity
QVQLVESGGGLVQAGGSLRLSCAASGRTFFGNAMGWYRQAPGKERELVAVISQGGGSTYYADSVKGRFTISRDNAKNTVYLQMNSLKPEDTAVYYCAKRYPHVGSGQLGGTYNYWGQGTQVTVSS | low polyreactivity
QVQLVESGGGLVQAGGSLRLSCAASGRTFFGYAMGWYIQAPGKERELVAAITWNGGRTYYADSVRGRFTISRDNAKNTVYLQMNSLKPEDTAVYYCAARVGDGVRRYNYWGQGTQVTVSS | high polyreactivity
QVQLVESGGGLVQAGGSLRLSCAASGRTFFGYAMGWYRQAPGKERELVAAISGGGRTNYADSVKGRFTISRDNAKNTVYLQMNSLKPEDTAVYYCAARLVKYFRPYDYWGQGTQVTVSS | high polyreactivity
QVQLVESGGGLVQAGGSLRLSCAASGRTFFGYAMGWYRQAPGKERELVAAISSGGSTYYADSVKGRFTISRDNAKNTVYLQMYSLKPEDTAVYYCATAFYYYTSGTTLLFRYDYWGQGTQVTVSS | low polyreactivity
QVQLVESGGGLVQAGGSLRLSCAASGRTFFKIAMGWYRQAPGKERELVASISSRSGTTYYADSVKGRFTISRDNAKNTVYLQMNSLKPEDTAVYYCAASRNRYSYGYWGQGTQVTVSS | high polyreactivity
QVQLVESGGGLVQAGGSLRLSCAASGRTFFKNAMGWYRQAPGKERELVASISSRSGTTYYADSVKGRFTISRDNAKNTVYLQMNSLKPEDTAVYYCAADIYWWRGSTHGMDYWGQGTQVTVSS | high polyreactivity
QVQLVESGGGLVQAGGSLRLSCAASGRTFFKYAMGWYRQAPGKERELVAAITGRGGSTYADSVKGRFTISRDNAKNTVYLQMNSLKPEDTAVYYCAKVYQRGAQYYYYKYDYWGQGTQVTVSS | high polyreactivity
